Key:
breast cancer tissues = assay: IHC in a breast cancer cohort (primary tumors, metastases, NAT); set-up: species or system human
Excerpt: FIG. 13. The HCMV US28 expression was studied by immunohistochemistry (IHC) and in situ hybridisation (ISH) in a breast cancer cohort. […] Most tumor cells in this sample stained positively for the US28-13-5G6-1D3 rAb (brown colour). […] C. […] The arrows point out some positive HCMV DNA signals in the figure. […] A colour version of FIG. 13 is provided on the page after the non-colour version.
FIG. 14. […] B. Most cancer cells in the same sample were negative for the MAB810R staining. C. […] The arrows point out such positive HCMV DNA signals. The HCMV DNA was not seen in the cytoplasm of the tumor cells. D. The negative control anti-IgG Ab staining for the same sample was negative. A colour version of FIG. 14 is also provided.
FIG. 15. The US28 staining and HCMV ISH were negative in many normal adjacent tumor (NAT) breast tissues as exemplified in the figure with the sample BR1008b_J6. […] C. […] D. The IgG staining was also negative. […] Thus, the samples are exposed to exactly the same staining conditions and antibody/DNA probe concentrations. […] A colour version of FIG. 15 is also provided.
FIG. 16. A. The IHC staining of the primary breast cancer samples with US28-13-5G6-1D3 rAb were specific and positive in ˜73% of the 41 studied primary breast tumor samples. […]

[1] = target: T1, Peptide-1 […] (SEQ ID NO: 6, 4N variant of ECD3 of US28) (Human cytomegalovirus, UniProt P69332, D170N); type: binding, human cytomegalovirus (HCMV); conditions: both ECD3 variants compared
T1 construct: made in house; host or cells: chemical synthesis
Excerpt: The binding specificity of a binding molecule of the first aspect of the present invention having anti-ECD3 binding specificity in addition to the anti-SEQ ID NO: 177 specificity (and/or a second binding molecule having anti-ECD3 binding specificity with which a binding molecule of the first aspect of the present invention may be combined in a formulation) to an epitope within ECD3 of a US28 protein may, for example, be assessed in an ELISA, such as a methodology as described in the examples of this application, or by a variant of said methodology, such as by coating peptides derived from ECD3 (such as Bio-Peptide 1 and/or Bio-Peptide-2) on a first set of wells in a microtiter plate and coating a negative control (such as BSA) in a second set of wells in a microtiter plate. The first set of wells may optionally be further subdivided into a first subgroup of the first set of wells that comprises the sequence of a 4N-variant from ECD3 of US28, and a second subgroup of the first set of wells that comprises the sequence of a 4D-variant from ECD3 of US28, to permit the determination of the relative binding specificity to each variant. […]

[2] = target: T2, Peptide-N […] (SEQ ID NO: 177), HCMV US28 ECD1 (Human cytomegalovirus, UniProt P69332); assay: ELISA, binding to Peptide-N (Bio-Peptide-N / Peptide-N-BSA coating)
T2 construct: Peptide-N was prepared via chemical synthesis: […]; made in house; host or cells: chemical synthesis
Experimental: Microtiter plate wells were coated with 100 μl of the solution containing: (i) Bio-Peptide-N; or (ii) Bio-Peptide-1 and Bio-Peptide-2; at a concentration of between 1-10 μg/ml in coating buffer, consisting of Na2CO3, 1.5 g and NaHCO3, 2.93 g in 1 L of distilled water in pH 9.6, and then incubated for 1-2 hours at room temperature. The plate was washed 3 times in wash buffer consisting of PBS containing 0.05% v/v Tween-20 and blotted with paper towels thereafter. 150 μl of blocking solution containing Phosphate buffered saline (PBS) containing 1% w/v BSA, was added to each well and the plate was incubated for 2 hours at 37° C. The wells were washed 4 times in wash buffer and blotted on paper towels after the last wash. 100 μl of antibody dilution was added to each well and the plate was incubated for 1 hour at 37° C. and thereafter washed 3 times in wash buffer. 100 μl enzyme-conjugated secondary antibody (appropriately diluted in wash buffer) was added to each well and the plate was incubated for 1 hour at 37° C. The wells were then again washed 3 times in wash buffer and blotted with paper towels after the last wash. […] The absorbance values were read immediately at the appropriate wavelength and the data analyzed by Cmax Plus, Molecular Devices, San Jose, CA 95134, USA,

[3] = target: T3, US28 of HCMV strain TB40/E on CHO cells (Human cytomegalovirus, UniProt P69332, A8T/D15E/E18L/V24T); assay: FACS binding to CHO cells expressing TB40/E form of US28; conditions: FIG. 21C
T3 construct: expressed in transfected cells; host or cells: CHO cells
Excerpt: The plasmids carrying the DNA for the TB40/E, VHL/E, and Merlin constructs and mutated US28 strain (SEQ ID Nos: 254, 272, 273 and 255, respectively) were also manufactured in the similar manner.
Flowcytometry was used to analyze cell surface binding by the US28 antibodies. Upon cell harvest, adherent non-infected and US28 overexpressing or HCMV infected cells were washed three times with cell staining buffer (phosphate-buffered saline (PBS (Amresco, Cleveland, 44139, USA) added 0.5% BSA and 0.05% Sodium Azide (NaN3)). The cells were trypisinized and then resuspended in DMEM with 10% FBS to inhibit the action of trypsin. The cells were then pelleted at 400×g for 10 minutes and washed three times in cell staining buffer. Cell viability and cell concentration were measured by tryphan blue viability assay and a cell counter (Countess, Invitrogen, Carlsbad, CA 92008, USA). The cell suspension was adjusted to 1×10^6 cells/mL with ice-cold cell staining buffer. The cells were blocked in 1 ml 10% FBS or 1% BSA in PBS per 1×10^6 cells, vortexed briefly, and incubated for 10-30 minutes to eliminate non-specific staining. The cells were then stained with the respective antibodies and appropriate negative controls. […]

B1: US28-13-5G6-1D3: monoclonal antibody against ECD3 of HCMV US28; VH SEQ ID NO: 12, VL SEQ ID NO: 18; rAb is the recombinant product (antibody, V domains shown)
VH: EVKLVESGGGLVQPGGSLRLACATSGFTFTDYYMSWVRQPPGKALEWLGFIRSKANGYTTEYSASVKGRFTISRDNSQSILYLQMNTLRSEDSATYYCARDERRTAWLAYWGQGTLVTVSA
VL: DVLMTQTPLSLPVSLGDQASISCRSSQSIVHSNGNTYLDWYLQKPGQSPKLLIYKVSNRFSGVPDRFSGSGSGTDFTLKISRVEAEDLGVYYCFQGSHVPTWTFGGGTKLEIK
modifications: Mature form of VH sequence of 1D3, without the leader sequence; Mature form of VL sequence of 1D3, without the leader sequence
notes: monoclonal antibody against ECD3 of HCMV US28; rAb is the recombinant product
Breast cancer tissues; all samples
  staining of TNBC (n=7) and HER2 positive (n=11) metastases: positive
Breast cancer tissues; hormone receptor positive cancers, of 30 metastases
  number of negative metastasis samples: 2
[1]
  qualitative ELISA binding to Bio-Peptide-1 (4N) and Bio-Peptide-2 (4D): equal qualitative binding

B2: 7B1F3: mouse IgG1 kappa antibody against US28 ECD1 Peptide-N; VH SEQ ID NO: 211, VL SEQ ID NO: 213 (antibody, V domains shown)
VH: EVQLQQSGAELAKPGASVKMSCKASGYTFTNYWMHWVKQRPGQGLEWIGYVNPRTGYTEYNQKFKDKATLTADKSSRTAYMQLSSLTSEDSAVYSCARILNGTGFAYWGQGTLVTVSA
VL: DIVLTQSPSSLTVSVGEKFTMSCKSSQSLLYSSNQKNYLAWYQQKPGQSPKLLIYWASTRESGVPDRFTGSGSGTDFTLAISSVKPEDLAIYYCQQYYSFPLTFGAGTKLEIK
modifications: Mature form of VH sequence of 7B1F3, without the leader sequence; Mature form of VL sequence of 7B1F3, without the leader sequence
[2]; ELISA absorbance, ECD1 subclones
  absorbance, Coating: Peptide-N-BSA: 2.7989
[2]; recombinant antibodies
  qualitative ELISA binding to Bio-Peptide-N: equal, strong and high binding affinity

B3: 13-5G6-1D3: mouse monoclonal IgG1 kappa antibody against US28 ECD3; VH SEQ ID NO: 12, VL SEQ ID NO: 18 (antibody, V domains shown)
VH: B1 VH
VL: B1 VL
modifications: Mature form of VH sequence of 1D3, without the leader sequence; Mature form of VL sequence of 1D3, without the leader sequence
[3]
  % change in absolute levels of binding between DB and TB40/E forms of US28: less than 10%

Reference: patent US20250296984A1, “THERAPEUTIC AND DIAGNOSTIC AGENTS AND USES THEREOF” (priority 2022, published 2025)
